{"source": "the nanobody polyreactivity screen of Harvey et al. (2022)", "test": "yeast display, Sf9 membrane polyspecificity reagent, FACS + sequencing; frameworks hold sequencing errors", "summary_of_the_method": "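Galactose induction of a Saccharomyces cerevisiae BJ5465 synthetic nanobody display library ran 36–48 hours. The cells were then stained for 1 hour at 4 °C with 10% biotinylated, detergent-solubilized Sf9 membrane reagent, pulled down on streptavidin microbeads and FACS-sorted into low and high (top ~1%) gates on expression and reagent-binding fluorescence. Labels for polyreactivity follow the gate of origin.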", "data": [{"sequence": "QVQLVESGGGLVQAGGSLRLSCAASGSILQVYAMGWYRQAPGKERELFADINYTTGSTYYADSVKGRFTISRDNAKNTVYLQMNSLKPEDTAVYYCAKDFGFQSDSWGQGTQVTVSS", "values": [{"measurement": "polyreactivity (PSR sort gate)", "value": "low polyreactivity"}]}, {"sequence": "QVQLVESGGGLVQAGGSLRLSCAASGSILRKYAMGWYRQAPGKERELVAAISGSGGRTHYADSVKGRFTISRDNAKNTVYLQMNSLKPEDTAVYYCARRIKLGQRQGGYYWGQGTQVTVSS", "values": [{"measurement": "polyreactivity (PSR sort gate)", "value": "high polyreactivity"}]}, {"sequence": "QVQLVESGGGLVQAGGSLRLSCAASGSILRRNAMGWYRPAPGKERELFAGISRGGNTNYADSVNGRFTISRDNAKNTVYLQMNSLKPEDTAVYYCDTDGYGRWGRLTFTYWGQGTQVTVSS", "values": [{"measurement": "polyreactivity (PSR sort gate)", "value": "low polyreactivity"}]}, {"sequence": "QVQLVESGGGLVQAGGSLRLSCAASGSILRSYAMGWYRQAPGKERELVAVINGSGGRTYYADSVKGRFTISRDNAKNTVYLQMNSLKPEDTAVYYCAARRHTKRPGYDYWGQGTQVTVSS", "values": [{"measurement": "polyreactivity (PSR sort gate)", "value": "low polyreactivity"}]}, {"sequence": "QVQLVESGGGLVQAGGSLRLSCAASGSILRTYTMGWYRQAPGKERELVAAISSSGGRTYYADSVKGRFTISRDNAKNTVYLQMNSLKPEDTAVYYCNAAYTTWRRGPMNYWGQGTQVTVSS", "values": [{"measurement": "polyreactivity (PSR sort gate)", "value": "high polyreactivity"}]}, {"sequence": "QVQLVESGGGLVQAGGSLRLSCAASGSILRYYTMGWYRQAPGKERELVASIRATGGNTYYADSVKGRFTISRDNAKNTVYLQMNSLKPEDTAVYYCAARYRKKYYWGQGTQVTVSS", "values": [{"measurement": "polyreactivity (PSR sort gate)", "value": "high polyreactivity"}]}, {"sequence": "QVQLVESGGGLVQAGGSLRLSCAASGSILSAYSMGWYRQAPGKARELVAAISKSGSSTYYSDSVKGRFTISRDNAKNTVYLQMNSLKPEDTAVYYCAAESSSYYGYYIYYYWGQGTQVTVSS", "values": [{"measurement": "polyreactivity (PSR sort gate)", "value": "high polyreactivity"}]}, {"sequence": "QVQLVESGGGLVQAGGSLRLSCAASGSILSENAMGWYRQAPGKERELVATISGSGSSTYYADSVKGRFTISRDNAKNTVYLQMNSLKPEDTAVYYCAAKYYLYWWPYDYWGQGTQVTVSS", "values": [{"measurement": "polyreactivity (PSR sort gate)", "value": "low polyreactivity"}]}, {"sequence": "QVQLVESGGGLVQAGGSLRLSCAASGSILSHNAMGWYRQAPGKERELVAAITTSGSTTYADSVKGRFTISRDNAKNTVYLQMNSLKPEDTAVYYCNARPDSWSDTAQNRYDYWGQGTQVTVSS", "values": [{"measurement": "polyreactivity (PSR sort gate)", "value": "low polyreactivity"}]}, {"sequence": "QVQLVESGGGLVQAGGSLRLSCAASGSILTRNAMGWYRQAPAKEREFVARITYSGGRTYYADSVKGRFTISRDNAKNTVYLQMNSLKPEDTAVYYCAKTDRYSLGYWGQGTQVTVSS", "values": [{"measurement": "polyreactivity (PSR sort gate)", "value": "low polyreactivity"}]}, {"sequence": "QVQLVESGGGLVQAGGSLRLSCAASGSILTVYSMGWYRQAPGKERELVARIRSGDRTYYADSVKGRFTISRDNAKNTVYLQMNSLKPEDTAVYYCAAGSQRRYYHTNWDSFNYWGQGTQVTVSS", "values": [{"measurement": "polyreactivity (PSR sort gate)", "value": "low polyreactivity"}]}, {"sequence": "QVQLVESGGGLVQAGGSLRLSCAASGSILVNNAMGWYRQAPGKERELVAAISRSGTRTFYADSVKGRFTISRENAKNTVYLQMNSLKPEDTAVYYCAVDYYYRMDYWGQGTQVTVSS", "values": [{"measurement": "polyreactivity (PSR sort gate)", "value": "high polyreactivity"}]}, {"sequence": "QVQLVESGGGLVQAGGSLRLSCAASGSILWLYVMGWYRQAPGKERELVATITSSGGSTYYADSVKGRFTISRDNAKNTVYLQKNSLKPEDTAVYYSAAQTYNSYDYWGQATQVTVSS", "values": [{"measurement": "polyreactivity (PSR sort gate)", "value": "low polyreactivity"}]}, {"sequence": "QVQLVESGGGLVQAGGSLRLSCAASGSILWQYAIGRYRQAPGKEMELVAAINQRGGSTYYADSVKGRFTISRDYAKNTVYLQMNSLKPEDTAVYYCNTYPTRTYPSYYYWGQGTQVTVSS", "values": [{"measurement": "polyreactivity (PSR sort gate)", "value": "high polyreactivity"}]}, {"sequence": "QVQLVESGGGLVQAGGSLRLSCAASGSILWQYAMGWSRQAPGKERELVAAITYSGASTHYADSVKGRFTISRDNAKNTVYLQMNRLKPEDTAVYYCAAGYWYRYAALRYDHWGQGTQVTVSS", "values": [{"measurement": "polyreactivity (PSR sort gate)", "value": "low polyreactivity"}]}, {"sequence": "QVQLVESGGGLVQAGGSLRLSCAASGSILWVNAMGWYRQAPGKERELVAAITSGGDSTNYADSVKGRFTISRDNAKNTVYLQMNSLKPEDTAVYYCNAEFWLNEDLDYDTSYDYWGQGTQVTVSS", "values": [{"measurement": "polyreactivity (PSR sort gate)", "value": "low polyreactivity"}]}, {"sequence": "QVQLVESGGGLVQAGGSLRLSCAASGSILYANAMGWYRQAPGKDRELVAAISARGTSTYYADSVKGRFTISRDNAKNTVYLQMNSLKPEDTAVYYCAAYVRKKLPSALMNYWGQGTQVTVSS", "values": [{"measurement": "polyreactivity (PSR sort gate)", "value": "high polyreactivity"}]}]}
